In assay [1] the target is Bcl-xL, recombinant protein (human) (UniProt Q07817). As to the kind of experiment: ITC; peptide titrated into Bcl-xL in the cell; 30 °C, 50 mM ammonium bicarbonate pH 9; ITC200 calorimeter.
Assay [2] has the same target. The assay is described as above. The source holds these as a separate data set.

The source of these data is paper PMC4728560, “TCTP contains a BH3-like domain, which instead of inhibiting, activates Bcl-xL” (Scientific Reports, 2016).

Where two headings read alike, the source gives them in different places.

In general, Kd refers to the equilibrium constant for the complex coming apart.

Chain of Bcl-xL, recombinant protein (human) (Q07817 whole entry): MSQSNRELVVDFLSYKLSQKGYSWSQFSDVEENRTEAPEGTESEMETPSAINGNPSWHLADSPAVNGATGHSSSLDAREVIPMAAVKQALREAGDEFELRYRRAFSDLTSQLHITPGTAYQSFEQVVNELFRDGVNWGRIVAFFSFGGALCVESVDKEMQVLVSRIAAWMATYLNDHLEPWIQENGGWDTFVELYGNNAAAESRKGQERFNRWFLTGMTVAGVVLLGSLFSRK

Turning to DEMFSDIYKIREIADGLCLEV [TCTP_(11–31) peptide], the dissociation constant Kd in assay [1] was 10 to 15 µM; in assay [2] it was 12 µM.
